Laboratory results reported in patent publication US20180371075A1.

Target: human IL-3 expressed by E. coli (Peprotech), non-glycosylated (human) (UniProt P08700)
Test: cell-based or functional assay

UniProt P08700, sequence (P08700 28-152, tags or fused parts left off): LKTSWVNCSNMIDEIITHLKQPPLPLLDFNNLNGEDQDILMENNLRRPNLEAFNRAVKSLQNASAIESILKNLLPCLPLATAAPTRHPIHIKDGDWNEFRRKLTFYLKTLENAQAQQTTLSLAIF

IC50, IL-3 dependent growth of TF1 cells: 0.033 µg/mL
Substance: R&D monoclonal anti-IL-3 antibody clone 4806 (R&D Systems, Inc., catalogue No. MAB203)
